Measurements taken from PMC7972864, “Fucoxanthin Prevents 6-OHDA-Induced Neurotoxicity by Targeting Keap1” (Oxidative Medicine and Cellular Longevity, 2021).

Molecular target: human Keap1 protein (human), Q14145
Test: BLI
Conditions: natural protein; chains chain; biotinylated (site not stated); remark: other sources report otherwise

Sequence of human Keap1 protein (human), Q14145 (Q14145 whole entry): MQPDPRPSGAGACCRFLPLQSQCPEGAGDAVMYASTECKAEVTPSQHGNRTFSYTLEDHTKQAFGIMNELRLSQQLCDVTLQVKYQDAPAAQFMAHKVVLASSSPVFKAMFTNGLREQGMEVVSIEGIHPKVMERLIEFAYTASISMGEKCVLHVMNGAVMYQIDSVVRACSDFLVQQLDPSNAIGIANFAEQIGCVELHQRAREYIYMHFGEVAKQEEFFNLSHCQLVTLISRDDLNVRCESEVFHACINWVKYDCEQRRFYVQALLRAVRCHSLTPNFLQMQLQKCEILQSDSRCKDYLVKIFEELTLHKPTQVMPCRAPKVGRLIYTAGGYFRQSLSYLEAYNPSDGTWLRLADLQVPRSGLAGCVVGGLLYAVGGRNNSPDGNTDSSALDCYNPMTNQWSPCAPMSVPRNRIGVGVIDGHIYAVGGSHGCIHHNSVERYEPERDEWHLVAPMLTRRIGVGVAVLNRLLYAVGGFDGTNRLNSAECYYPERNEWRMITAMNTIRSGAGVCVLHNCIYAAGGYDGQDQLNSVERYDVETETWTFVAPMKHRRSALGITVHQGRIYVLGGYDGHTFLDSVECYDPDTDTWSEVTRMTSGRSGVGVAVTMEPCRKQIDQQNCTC

Kd: 12.6 nM
B1: human Nrf2 protein, Q16236 1-605 (protein)
chain: MMDLELPPPGLPSQQDMDLIDILWRQDIDLGVSREVFDFSQRRKEYELEKQKKLEKERQEQLQKEQEKAFFAQLQLDEETGEFLPIQPAQHIQSETSGSANYSQVAHIPKSDALYFDDCMQLLAQTFPFVDDNEVSSATFQSLVPDIPGHIESPVFIATNQAQSPETSVAQVAPVDLDGMQQDIEQVWEELLSIPELQCLNIENDKLVETTMVPSPEAKLTEVDNYHFYSSIPSMEKEVGNCSPHFLNAFEDSFSSILSTEDPNQLTVNSLNSDATVNTDFGDEFYSAFIAEPSISNSMPSPATLSHSLSELLNGPIDVSDLSLCKAFNQNHPESTAEFNDSDSGISLNTSPSVASPEHSVESSSYGDTLLGLSDSEVEELDSAPGSVKQNGPKTPVHSSGDMVQPLSPSQGQSTHVHDAQCENTPEKELPVSPGHRKTPFTKDKHSSRLEAHLTRDELRAKALHIPFPVEKIINLPVVDFNEMMSKEQFNEAQLALIRDIRRRGKNKVAAQNCRKRKLENIVELEQDLDHLKDEKEKLLKEKGENDKSLHLLKKQLSTLYLEVFSMLRDEDGKPYSPSEYSLQQTRDGNVFLVPKSKKPDVKKN
